Experimental findings from article PMC11413795, “Milk-derived extracellular vesicles enable gut-to-tumor oral delivery of tumor-activated doxorubicin prodrugs” (Theranostics, 2024) are described below.

Structures are written as SMILES. Peptide text beside a SMILES is read from it. * marks the point of attachment. Doxorubicin(3'-N) = COc1cccc2c1C(=O)c1c(O)c3c(c(O)c1C2=O)C[C@@](O)(C(=O)CO)C[C@@H]3O[C@H]1C[C@H](N*)[C@H](O)[C@H](C)O1 Some results are limits rather than exact numbers.

Series [1] in a line: Biodistribution after oral administration, NIRF imaging of GI tract. The arrangement: species or system BALB/c mice. The conditions noted are these: mouse. As for the experimental part:
All animal experiments were performed following the International Guide for the Care and Use of Laboratory Animals and were approved by the Korea Institute of Science and Technology. 7-week-old BALB/c mice (n = 3 per each time point) were used to monitor the in vivo biodistribution of mEVs. […] Fluorescence signals in the GI tract were monitored by NIRF imaging. Following the assessment of GI tract distribution, all mice were anesthetized using 2.5% isoflurane gas and dissected to extract their major organs (liver, lung, spleen, heart, and kidney) along with the GI tract, and blood for PK analysis. PK analysis was performed by measuring the fluorescence signal of FDX and mEVs present in the blood at each time point (20 min, 40 min, 1 h, 3 h, 6 h, and 24 h).

Series [2] can be described thus: Systemic toxicity after repeated oral administration. In kind it is in vivo, BALB/c mice. The conditions noted are these: 10 mg/kg FDX or equivalent, three-day intervals, n = 5. The procedure:
To evaluate the therapeutic efficacy of FDX@mEVs, all controls and FDX@mEVs (PBS, mEVs, FDX, and FDX@mEVs; an equivalent dose of 10 mg/kg of FDX dispersed in 100 μL of PBS) were orally administered to CT26 tumor-bearing mice when the average tumor size reached approximately 50 - 70 mm^3. The CT26 tumor-bearing mice were modeled in the same manner as the previous method by inoculating 1.5 x 10^6 cells into the left flank of 7-week-old BALB/c mice (BALB/cAnNCrlOri). The six-repeated administration was conducted every three days, and tumor sizes and body weights were measured every two days. All subjects were sacrificed three days after the last administration, and blood, major organs, and tumor tissues were collected for the following analysis.
Systemic toxicity of FDX@mEVs was assessed by analyzing hematological parameters and histological assay of major organs. To assess liver damage by FDX@mEVs, AST, and ALT levels were analyzed. In addition, BUN and creatinine levels were also evaluated to confirm renal toxicity. Subsequently, all major organs were used for H&E staining to verify the histological damage of FDX@mEVs. H&E staining was performed according to the same protocol used in our previous study. Briefly, all sections were incubated in Hematoxylin solution for 5 min at RT. All incubated tissue sections were washed using tap water for 3 min. […]

On to `COc1cccc2c1C(=O)c1c(O)c3c(c(O)c1C2=O)C[C@@](O)(C(=O)CO)C[C@@H]3O[C@H]1C[C@H](NC(=O)CNC(=O)[C@H](CCCNC(=N)N)NC(=O)[C@H](CCCNC(=N)N)NC(=O)[C@H](Cc2ccccc2)NC(C)=O)[C@H](O)[C@H](C)O1` [FDX, FRRG-DOX] (Ac-FRRG-{Doxorubicin(3'-N)}), for which the “in vivo clearance time after oral administration” value in series [1] is listed as ≤ 3 h. Also, the “body weight during repeated oral administration compared to PBS group” value in series [2] is listed as “no significant changes”.
